Laboratory results published in publication PMC10182041 (2023).
Where no end group is shown, it is not given here.

Assays:
[1] = target: T1, Msi3, the sole Hsp110 of Candida albicans (Candida albicans, UniProt Q96VB9 1-701); test: FP
T1 chain: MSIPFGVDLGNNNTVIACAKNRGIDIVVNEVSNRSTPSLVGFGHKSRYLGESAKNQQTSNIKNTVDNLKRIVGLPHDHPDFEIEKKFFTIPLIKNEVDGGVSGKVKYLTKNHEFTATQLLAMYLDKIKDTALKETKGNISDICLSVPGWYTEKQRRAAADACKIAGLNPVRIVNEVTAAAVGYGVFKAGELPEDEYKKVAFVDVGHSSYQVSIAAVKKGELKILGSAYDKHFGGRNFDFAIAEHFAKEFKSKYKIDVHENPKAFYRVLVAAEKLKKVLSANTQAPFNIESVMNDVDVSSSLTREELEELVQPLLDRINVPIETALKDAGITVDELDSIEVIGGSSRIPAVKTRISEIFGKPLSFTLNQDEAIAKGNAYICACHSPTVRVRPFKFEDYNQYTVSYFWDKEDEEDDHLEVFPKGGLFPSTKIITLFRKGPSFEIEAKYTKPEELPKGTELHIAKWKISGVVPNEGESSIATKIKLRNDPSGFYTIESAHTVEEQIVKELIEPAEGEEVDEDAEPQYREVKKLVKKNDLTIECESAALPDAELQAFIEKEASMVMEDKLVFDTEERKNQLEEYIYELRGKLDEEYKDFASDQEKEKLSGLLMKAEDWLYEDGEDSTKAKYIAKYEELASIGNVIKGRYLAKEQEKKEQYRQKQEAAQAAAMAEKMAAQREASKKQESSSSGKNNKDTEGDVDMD

[2] = target: T1, Msi3, the sole Hsp110 of Candida …; test: FP; +2H (100 µM)

Binder: fluorescein-VYDFFVWL [TRP2-181 peptide labeled with a fluorescein at the N-terminus]
- Kd [1]: 0.65 µM
- Kd [2]: 5.45 µM
